For assay [1], the system named is GST-MRCKβ-cat-L (human, residues 1–550). Description: In vitro kinase assay, MRCKβ activity. The format is biochemical. To be noted: S6 rsk substrate peptide (40 µM) as substrate, γ-[32P]ATP, N=3, Figure S3B. How it is done:
(§1) The kinase reactions were performed in 50 μL of a reaction mixture (25 mM Tris-HCl, pH 7.5, 1 mM EDTA, 1 mM EGTA, 1 mM DTT, 5 mM MgCl2, and 50 μM γ-[^32P]ATP [1–20 GBq/mmol]), GST-Rho-kinase-cat-L or other kinases (1–10 nM), and substrates for 10–20 min at 30 °C. The reaction mixtures were applied to cation-exchange membranes and washed with 75 mM phosphoric acid three times, which was followed by scintillation counting.
(§2) Supplem entary Figure S3. Inhibition of the kinase activity by the MYPT1-684-868 aa-4A […]
(§3) (A) In vitro phosphorylation of various substrates by Rho -kinase. S6 rsk substrate peptide (40 µM), GST-MYPT1 fragments (0.5 µM), GST-MLC (0.5 µM), or GST-Scrib-C (1235-1630 aa) (0.5 µM) was phosphorylated by GS T-Rho-kinase-cat-L with 1 µM GST or GST-MYPT1-684-868 aa-4A in the presence of γ-[32P]ATP. Data represent means ± SD. N=3. (B ) GS T-Rho-kinase-cat-L, GST-MRCKβ-cat-L, and GST-PKACα activities were examined using the S6 rsk substrate peptide (40 µM) as a substrate in the presence of γ-[32P]ATP and GST-MYPT1-684-868 aa-4A fragment at the indicated concentrations. The reaction mixtures were applied onto cation-exchange membranes, followed by scintillation counting. Data represent means ± SD. N=3.
(§4) (1 picture or pasted object on this page, not shown here)

The test system of the next assay is NIH3T3 cells. Description: Actin stress fiber formation in NIH3T3 cells. In kind it is cell-based. The conditions noted are these: GST-MYPT1 fragment expressed in NIH3T3 cells, 24 h, phalloidin staining, N = 4. How it is done:
NIH3T3 cells were seeded on polylysine-coated 13-mm coverslips at a density of 4 × 10^4 cells/well in a 6-well dish and cultured in DMEM with 10% calf serum overnight. The cells were transfected with plasmid using LIPOFECTAMINE LTX reagent (Thermo Fisher Scientific, Waltham, MA, USA), according to the manufacture’s protocol. After 24 h, the cells were incubated in fresh DMEM containing 10% calf serum for 20 min, fixed with 3.7% formaldehyde in PBS for 10 min and then treated with PBS containing 0.2% Triton X-100 for 10 min. The fixed cells were blocked with 1% bovine serum albumin for 30 min and stained with the indicated antibodies. Cover slips were mounted with Fluoromount (Diagnostic Biosystems, Pleasanton, CA, USA) and the fluorescence was examined using a confocal laser scanning microscope LSM 780 and LSM5 PASCAL built around an Axio Observer Z1 or Axiovert 200M under the control of LSM software (Carl Zeiss, Oberkochen, Germany). Images were processed using ImageJ or Photoshop (Adobe, San Jose, CA, USA).
Figure 3 Inhibition of MYPT1 phosphorylation by the Rho-kinase-binding fragment of MYPT1. (A,B) Effect of the overexpression of Rho-kinase-binding MYPT1 fragments on GFP-MYPT1 phosphorylation in COS7 cells. Full-length GFP-MYPT1 and the GST-MYPT1 Rho-kinase binding fragment were transiently expressed in COS7 cells. The cell lysates were analyzed by immunoblot analysis using anti-MYPT1-pT855 (top panel), anti-GFP (middle), or anti-GST (bottom) antibodies. The phospho-GFP-MYPT1 levels were quantified and normalized by GFP-MYPT1 levels. Data represent means ± SD. **, p < 0.01, ***, p < 0.001 as compared with the control. (C) Effect of the overexpression of Rho-kinase-binding MYPT1 fragments on stress fiber formation in NIH3T3 cells. GST-MYPT1 fragments were expressed in NIH3T3 cells. The cells were fixed in formaldehyde, and immunostained with phalloidin and anti-GST antibody. […] The percentages of cells with stress fibers throughout the cell (SF(++)), cells with stress fibers partly in the cell (SF(+)), and cells without stress fibers (SF(–)) were analyzed. […]

Assay [2] addresses T1, GST-Rho-kinase-cat-L (bovine, residues 6–553) (Bos taurus, UniProt Q28021).
T1 construct: GST-Rho-kinase-cat-L (bovine, residues 6–553); made in house; host or cells: Sf9 cells (baculovirus)
Description: In vitro kinase assay, Rho-kinase-cat-L activity. The format is biochemical. To be noted: S6 rsk substrate peptide as substrate, 50 μM γ-[32P]ATP, 30 °C, inhibitor at the indicated concentrations, scintillation counting, N = 3. How it is done:
as §1
Figure 4 Direct inhibition of Rho-kinase activity in vitro. (A) In vitro phosphorylation of S6 rsk substrate peptide by Rho-kinase. GST-Rho-kinase-cat-L or GST-ROCK1-cat-L activity was examined using the S6 rsk substrate peptide as a substrate in the presence of γ-[^32P]ATP. GST-MYPT1-684–868 aa-WT or -4A was added at the indicated concentrations. The reaction mixtures were applied onto cation-exchange membranes, followed by scintillation counting. N = 3. (B) Effects of the deletion of DMs on the inhibition of Rho-kinase activity in vitro. GST-Rho-kinase-cat-L activity was examined using the S6 rsk substrate peptide as a substrate in the presence of γ-[^32P]ATP. GST-MYPT1-684–868-4A with or without DMs was added at the indicated concentrations. The reaction mixtures were applied onto cation-exchange membranes, followed by scintillation counting. N = 3. The deletion of DM1 or DM2 moderately weakened the inhibitory effect and the deletion of both DM1 and DM2 completely abrogated the inhibitory effects of the MYPT1 fragment on the Rho-kinase activity. (C) Sequences of the DMs and phosphorylation sites of MYPT1. The sequences of MYPT1 683–715 aa and 836-860 aa and synthetic peptides are shown. Basic (blue), acidic (red), and aliphatic (green) amino acids within DMs are indicated. Phosphorylation sites are replaced by Ala in pseudosubstrate (PS) peptides. (D) Inhibition of Rho-kinase activity by PS2 + DM2 synthetic peptide. GST-Rho-kinase-cat-L activity was examined using the S6 rsk substrate peptide as a substrate in the presence of γ-[^32P]ATP. Synthetic peptides were added at the indicated concentrations. The reaction mixtures were applied onto cation-exchange membranes, followed by scintillation counting. N = 3. (E) Inhibition of Rho-kinase activity by PS1 + DM3 synthetic peptide. GST-Rho-kinase-cat-L activity was examined using the S6 rsk substrate peptide as a substrate in the presence of γ-[^32P]ATP. Synthetic peptides were added at the indicated concentrations. The reaction mixtures were applied onto cation-exchange membranes, followed by scintillation counting. N = 3.

Another assay has as its system GST-PKACα. Description: In vitro kinase assay, PKA activity. To be noted: S6 rsk substrate peptide (40 µM) as substrate, γ-[32P]ATP, N=3, Figure S3B. In kind it is biochemical. How it is done:
as §1, §2, §3, §4

The target of assay [3] is T1, GST-Rho-kinase-cat-L (bovine, residues 6–553). Description: In vitro kinase assay, Rho-kinase-cat-L activity. The conditions noted are these: 1 µM inhibitory fragment, Figure S3A, N=3. The format is biochemical.

T1 sequence (Q28021 6-553): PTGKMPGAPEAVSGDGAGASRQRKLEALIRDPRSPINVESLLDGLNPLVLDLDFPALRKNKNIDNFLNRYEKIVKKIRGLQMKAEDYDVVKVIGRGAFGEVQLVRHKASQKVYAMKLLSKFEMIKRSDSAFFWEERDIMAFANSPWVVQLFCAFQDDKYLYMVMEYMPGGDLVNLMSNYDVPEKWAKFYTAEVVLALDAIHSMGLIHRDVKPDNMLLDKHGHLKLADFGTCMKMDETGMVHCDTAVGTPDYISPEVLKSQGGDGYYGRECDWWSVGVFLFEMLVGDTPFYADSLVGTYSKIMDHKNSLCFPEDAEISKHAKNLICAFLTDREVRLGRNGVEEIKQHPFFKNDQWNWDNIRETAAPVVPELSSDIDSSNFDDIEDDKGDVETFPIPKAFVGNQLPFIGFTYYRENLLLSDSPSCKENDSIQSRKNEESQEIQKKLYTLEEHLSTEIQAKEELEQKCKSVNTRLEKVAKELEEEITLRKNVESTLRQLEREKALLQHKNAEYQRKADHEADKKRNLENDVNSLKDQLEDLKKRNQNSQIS

B1: MYPT1-684–868 aa-4A: GST-fused rat MYPT1 fragment 684–868 aa with the four phosphorylation sites replaced with Ala (protein)
chain: KARSRQARQSRRAAQGVTLTDLQEAEKTIGRSRSTRTREQENEEKDKEEKEKQDKEKQEEKKESEVSREDEYKQKYSRTYDETYARYRPVSTSSSSTPSSSSLSTLGSSLYASSQLNRPNSLVGITSAYSRGLTKDNEREGEKKEEEKEGEDKSQPKSIRERRRPREKRRAAGVSFWTQDSDENE
modifications: left off: GST, end not stated, kept
notes: GST-fused rat MYPT1 fragment 684–868 aa with the four phosphorylation sites replaced with Ala
For B1, in assay [1], the “Inhibition of MRCKβ activity (in words)” value is reported as “moderately inhibited”. For the same molecule, the “Effect on actin stress fiber formation” value with NIH3T3 cells is “reduced actin stress fibers”. Moreover, in assay [2], the “Inhibition of Rho-kinase-cat-L activity (in words)” value is given as “inhibited the Rho-kinase-cat-L activity”. For the same molecule, the “Inhibition of PKA activity (in words)” value in the assay with GST-PKACα is recorded as “did not inhibit”. In assay [3] (substrate GST-MLC (0.5 µM)), the “Inhibition of phosphorylation of MLC by Rho-kinase” value is “inhibited”. Besides, the “Inhibition of phosphorylation of MYPT1 by Rho-kinase” value in assay [3] (substrate GST-MYPT1 fragments (0.5 µM)) is recorded as “much weaker”. For the same molecule, in assay [3] (substrate GST-Scrib-C (1235-1630 aa) (0.5 µM)), the “Inhibition of phosphorylation of Scrib by Rho-kinase” value was “inhibited”.
